Laboratory results published in paper PMC4019986, “Structural and biochemical characterization of the KLHL3–WNK kinase interaction important in blood pressure regulation” (Biochemical Journal, 2014).
Ends that are not written are not given here. Peptide text beside a SMILES is read from it. * marks the point of attachment. X1 = N[C@H]1CS[As]2SC[C@H](NC1=O)C(=O)N1CCC[C@H]1C(=O)NCC(=O)N[C@H]1CS[As](SC[C@@H](C(=O)*)NC1=O)c1c(O)ccc3c1Oc1c(ccc(O)c12)C31OC(=O)c2ccccc21

T1: GST–KLHL3^290–587 N529K (human, UniProt Q9UH77-1 290-587, N529K)
T1 construct: KLHL3, human, NM_017415.2, Kelch domain, residues 290-587, with the Gordon's syndrome mutation N529K; Mutation found in patients with Gordon's syndrome; also called KLHL3 N529K; source: E. coli BL21, purified (glutathione–Sepharose); not shown: GST, N-terminal, kept
T1 sequence (looked up): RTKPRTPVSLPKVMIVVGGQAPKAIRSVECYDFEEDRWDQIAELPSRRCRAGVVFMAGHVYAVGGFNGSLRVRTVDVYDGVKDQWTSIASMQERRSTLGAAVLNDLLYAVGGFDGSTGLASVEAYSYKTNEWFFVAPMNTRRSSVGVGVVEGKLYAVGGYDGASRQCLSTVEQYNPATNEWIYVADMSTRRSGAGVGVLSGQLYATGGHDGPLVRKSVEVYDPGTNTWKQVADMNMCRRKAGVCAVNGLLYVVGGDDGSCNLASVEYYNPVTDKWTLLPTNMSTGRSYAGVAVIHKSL

T2: KLHL3 full-length protein (residues 1–587) (human, UniProt Q9UH77-1 1-587)
T2 construct: Kelch-like protein 3 (KLHL3), human, NM_017415.2, residues 1-587; also called Kelch-like protein 3; source: Sf21 cells, expressed and purified as a DAC-(TEV protease)KLHL3 fusion protein
T2 sequence (looked up): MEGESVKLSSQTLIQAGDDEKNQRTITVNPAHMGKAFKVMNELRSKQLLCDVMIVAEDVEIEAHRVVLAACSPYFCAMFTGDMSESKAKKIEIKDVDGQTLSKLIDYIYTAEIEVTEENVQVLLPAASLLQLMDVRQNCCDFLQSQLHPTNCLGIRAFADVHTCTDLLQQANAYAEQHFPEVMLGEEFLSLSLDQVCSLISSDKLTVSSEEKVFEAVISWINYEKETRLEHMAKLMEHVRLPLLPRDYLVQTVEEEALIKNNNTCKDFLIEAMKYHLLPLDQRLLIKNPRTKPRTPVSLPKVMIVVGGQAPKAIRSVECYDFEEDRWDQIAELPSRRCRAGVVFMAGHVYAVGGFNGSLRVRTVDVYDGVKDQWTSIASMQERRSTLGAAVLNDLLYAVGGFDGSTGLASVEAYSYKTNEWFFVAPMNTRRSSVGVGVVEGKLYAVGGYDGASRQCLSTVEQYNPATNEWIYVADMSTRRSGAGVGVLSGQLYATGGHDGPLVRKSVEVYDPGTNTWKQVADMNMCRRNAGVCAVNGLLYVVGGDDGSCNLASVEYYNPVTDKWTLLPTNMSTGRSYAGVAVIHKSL

T3: GST–KLHL3^290–587 R528H (human, UniProt Q9UH77-1 290-587, R528H)
T3 construct: KLHL3, human, NM_017415.2, Kelch domain, residues 290-587, with the Gordon's syndrome mutation R528H; Mutation found in patients with Gordon's syndrome; also called KLHL3 R528H; source: E. coli BL21, purified (glutathione–Sepharose); not shown: GST, N-terminal, kept
T3 sequence (looked up): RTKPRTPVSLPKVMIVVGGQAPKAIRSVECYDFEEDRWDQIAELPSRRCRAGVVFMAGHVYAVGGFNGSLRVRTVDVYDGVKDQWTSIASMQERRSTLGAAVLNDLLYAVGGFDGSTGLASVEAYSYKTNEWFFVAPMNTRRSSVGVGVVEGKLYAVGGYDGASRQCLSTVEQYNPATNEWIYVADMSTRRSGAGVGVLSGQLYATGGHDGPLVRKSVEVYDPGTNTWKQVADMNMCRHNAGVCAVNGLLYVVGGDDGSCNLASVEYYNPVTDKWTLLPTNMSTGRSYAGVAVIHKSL


Columns and labels:
GST–KLHL3^290–587 R528H [1] = molecular target: GST–KLHL3^290–587 R528H (Homo sapiens, UniProt Q9UH77, R528H); format: binding
GST–KLHL3^290–587 N529K = molecular target: T1, GST–KLHL3^290–587 N529K; test: fluorescence polarisation; Kelch protein titrated against 10 nM Lumio-Green-labelled peptide; 25°C; 50 mM Tris/HCl pH 7.5, 150 mM NaCl, 2 mM DTT; one-site specific binding with Hill slope; duplicates, at least 12 points per curve; conditions: both partners purified
[2] = molecular target: T2, KLHL3 full-length protein (residues …); test: as above; conditions: both partners purified
GST–KLHL3^290–587 R528H [3] = molecular target: T3, GST–KLHL3^290–587 R528H; test: as above; conditions: both partners purified

Row | Kd (GST–KLHL3^290–587 N529K) [nM] | Kd [2] [nM] | Kd (GST–KLHL3^290–587 R528H [3]) [nM] | Molecule | reduction of binding relative to wild-type KLHL3 (GST–KLHL3^290–587 R528H [1])
1 |  |  |  | CC(C)[C@H](NC(=O)[C@H](CO)NC(=O)[C@@H]1CCCN1C(=O)[C@@H]1CCCN1C(=O)CNC(=O)CNC(=O)CNC(=O)CNC(=O)CNC(=O)[C@@H]1CS[As]2SC[C@H](NC(=O)CNC(=O)[C@@H]3CCCN3C(=O)[C@@H]3CS[As](SC[C@H](N)C(=O)N3)c3c(O)ccc4c3Oc3c(ccc(O)c32)C42OC(=O)c3ccccc32)C(=O)N1)C(=O)N[C@@H](Cc1ccccc1)C(=O)N1CCC[C@H]1C(=O)N1CCC[C@H]1C(=O)N[C@@H](CCC(=O)O)C(=O)N1CCC[C@H]1C(=O)N[C@@H](CCC(=O)O)C(=O)N[C@@H](CCC(=O)O)C(=O)N1CCC[C@H]1C(=O)N[C@@H](CCC(=O)O)C(=O)N[C@@H](C)C(=O)N[C@@H](CC(=O)O)C(=O)N[C@@H](CCC(N)=O)C(=O)N[C@@H](Cc1cnc[nH]1)C(=O)N[C@@H](CCC(N)=O)C(=O)O (stereo partly shown) [WNK4 WT 549–567] (X1-GGGGGPPSVFPPEPEEPEADQHQ-OH) | approximately 10 fold
2 | 6600 | 620 | 1930 | GPPSVFPPEPEEPEADQHQ (not fully specified (N-terminus); also: Lumio Green fluorophore on N-terminal linker CCPGCCGGGG, WNK4 acidic degron, residues 549-567; also called WNK4 19-residue peptide; source: synthetic peptide (GL Biochem)) [19-residue WNK4 degron peptide (WNK4 WT 549–567)] | 
